Data from paper PMC3711130.
Where two headings read alike, the source gives them in different places.

Experiments:
[1] = target: His-Tm (wild-type α-tropomyosin homodimer with a histidine tag) (rat); experiment: cross-linking
[2] = target: pyr-actin·WT-Tm·hcTn thin filament (rabbit | rat | human) (UniProt P68135); experiment: stopped-flow fluorescence
[3] = target: pyr-actin·D175N-Tm·hcTn thin filament (rabbit | rat | human) (UniProt P68135); experiment: stopped-flow fluorescence
[4] = target: pyr-actin·E180G-Tm·hcTn thin filament (rabbit | rat | human) (UniProt P68135); experiment: stopped-flow fluorescence
[5] = target: pyr-actin·WT-E180G-Tm·hcTn thin filament (rabbit | rat | human) (UniProt P68135); experiment: stopped-flow fluorescence
[6] = target: pyr-actin·WT-D175N-Tm·hcTn thin filament (rabbit | rat | human) (UniProt P68135); experiment: stopped-flow fluorescence
[7] = target: pyr-actin·WT-Tm·hcTn thin filament (rabbit | rat | human) (UniProt P68135); experiment: stopped-flow fluorescence; remark: listed apart in the source

Sequence of myosin subfragment 1 (native rabbit skeletal) (domain or fragment) (Q28641 whole entry, the tested form may be a part): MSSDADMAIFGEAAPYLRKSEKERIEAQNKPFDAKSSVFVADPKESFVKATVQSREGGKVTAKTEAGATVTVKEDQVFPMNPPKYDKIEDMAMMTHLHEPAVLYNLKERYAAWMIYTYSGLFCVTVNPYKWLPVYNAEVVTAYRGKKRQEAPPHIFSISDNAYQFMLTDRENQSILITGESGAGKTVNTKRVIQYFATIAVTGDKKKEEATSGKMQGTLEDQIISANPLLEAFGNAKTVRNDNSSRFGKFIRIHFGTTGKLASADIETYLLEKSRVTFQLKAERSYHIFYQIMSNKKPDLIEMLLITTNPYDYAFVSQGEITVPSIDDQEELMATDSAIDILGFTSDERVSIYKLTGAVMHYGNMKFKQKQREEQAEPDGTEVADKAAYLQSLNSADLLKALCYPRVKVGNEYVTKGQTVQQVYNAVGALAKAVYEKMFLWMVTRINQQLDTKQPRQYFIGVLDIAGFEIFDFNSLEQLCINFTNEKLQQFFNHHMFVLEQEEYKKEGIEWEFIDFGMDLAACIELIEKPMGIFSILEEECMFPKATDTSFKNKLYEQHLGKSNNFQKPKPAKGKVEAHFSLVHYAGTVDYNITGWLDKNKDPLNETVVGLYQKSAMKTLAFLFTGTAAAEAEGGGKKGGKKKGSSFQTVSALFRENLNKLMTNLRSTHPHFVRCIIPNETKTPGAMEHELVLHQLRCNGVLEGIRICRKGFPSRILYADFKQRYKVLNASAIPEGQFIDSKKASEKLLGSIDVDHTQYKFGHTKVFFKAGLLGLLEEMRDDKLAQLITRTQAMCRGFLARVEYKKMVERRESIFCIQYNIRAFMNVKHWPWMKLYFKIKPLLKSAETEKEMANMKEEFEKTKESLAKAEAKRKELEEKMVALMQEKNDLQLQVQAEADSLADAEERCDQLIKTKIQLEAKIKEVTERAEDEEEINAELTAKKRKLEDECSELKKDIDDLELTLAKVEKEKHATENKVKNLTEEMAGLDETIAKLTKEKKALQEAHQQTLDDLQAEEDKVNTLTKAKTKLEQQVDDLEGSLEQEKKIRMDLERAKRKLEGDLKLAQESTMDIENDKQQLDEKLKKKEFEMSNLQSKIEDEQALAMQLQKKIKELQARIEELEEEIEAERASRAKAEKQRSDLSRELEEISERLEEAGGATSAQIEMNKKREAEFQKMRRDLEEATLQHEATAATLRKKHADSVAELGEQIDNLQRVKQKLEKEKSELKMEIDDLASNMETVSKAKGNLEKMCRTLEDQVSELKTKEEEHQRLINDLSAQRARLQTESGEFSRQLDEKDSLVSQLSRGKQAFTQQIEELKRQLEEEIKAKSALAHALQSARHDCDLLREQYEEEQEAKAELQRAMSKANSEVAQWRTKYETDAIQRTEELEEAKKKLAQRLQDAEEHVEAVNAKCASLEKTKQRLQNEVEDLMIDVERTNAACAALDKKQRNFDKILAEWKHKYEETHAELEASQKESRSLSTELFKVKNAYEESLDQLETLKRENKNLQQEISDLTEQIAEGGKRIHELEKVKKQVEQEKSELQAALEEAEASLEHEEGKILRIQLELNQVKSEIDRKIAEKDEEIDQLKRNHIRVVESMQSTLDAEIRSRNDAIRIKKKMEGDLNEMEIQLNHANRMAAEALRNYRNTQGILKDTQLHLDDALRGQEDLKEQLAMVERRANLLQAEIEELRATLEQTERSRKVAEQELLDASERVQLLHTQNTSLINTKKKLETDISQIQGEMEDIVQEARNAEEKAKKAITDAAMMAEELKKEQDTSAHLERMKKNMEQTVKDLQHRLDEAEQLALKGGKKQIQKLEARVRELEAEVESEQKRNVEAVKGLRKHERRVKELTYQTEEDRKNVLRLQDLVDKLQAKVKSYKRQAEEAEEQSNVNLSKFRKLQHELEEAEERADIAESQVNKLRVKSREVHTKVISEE

Row | stoichiometry N [1] | kobs with Ca2+ [2] | kobs without Ca2+ [2] | kobs with Ca2+ [3] | kobs without Ca2+ [3] | kobs with Ca2+ [4] | kobs without Ca2+ [4] | kobs with Ca2+ [5] | kobs without Ca2+ [5] | kobs with Ca2+ [6] | kobs without Ca2+ [6] | kobs with Ca2+ [7] | kobs without Ca2+ [7] | Substance
1 | 1 |  |  |  |  |  |  |  |  |  |  |  |  | D175N-Tm (α-tropomyosin homodimer with the D175N mutation in both chains) (natural protein)
2 |  | 7.68 s^–1 | 2.21 s^–1 | 8.48 s^–1 | 2.41 s^–1 | 8.46 s^–1 | 2.71 s^–1 | 7.58 s^–1 | 2.31 s^–1 | 8 s^–1 | 2.31 s^–1 | 7 s^–1 | 2 s^–1 | myosin subfragment 1 (native rabbit skeletal) (domain or fragment)
